Experimental data taken from the supplement of paper PMC10126150.
± gives the standard deviation of the averaged measurements.

The sequences below were run on ATP (assay: switch fluorescence ratio, 500 uM ATP over buffer (Cy3 cluster intensity, sum of 5 cycles each) (fold (ratio)); higher = stronger signal-on switching upon ATP binding; sequences stand for … in TCGTCGGCAGCGTCAGATGTGTATAAGAGACAGTTTTTTTTTTTTTTTTTTTTTTTTT…TC). Settings: aptamer strand: ATP DNA aptamer (quencher-CACCTGGGGGAGTATTGCGGAGGAAGG + anchor), 100 nM annealed; ATP concentration: 500 uM.
How it was run: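 The fluorescence ratio divides summed target-cycle Cy3 intensity by summed buffer-cycle Cy3 intensity for each cluster and is averaged per switch-domain sequence. Cy3-labelled switching-strand clusters on a modified Illumina MiSeq flow-cell were annealed to 100 nM quencher-labelled ATP aptamer, then imaged in selection buffer and again after 15 min with 500 uM ATP at 22 °C. Five such cycles were run, with NaOH stripping and re-annealing between them, and clusters outside 100-1000 RFU were excluded.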
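Further: ATP exposure 15 min at 22 °C before imaging.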

Sequence | switch fluorescence ratio
ATATGTATGG | 0.968 ± 0.011
GGAGAAATGT | 0.998 ± 0.011
TTACGGCCCG | 1.05 ± 0.051
TTCAAAAAGT | 0.991 ± 0.021
TGGTCCGGGA | 1.03 ± 0.029
CCCTTATGGT | 0.9932 ± 0.0086
TCCTGGCTTT | 1.26 ± 0.29
AGGGTCTGAG | 1.01 ± 0.026
ATTTATGCAG | 0.9992 ± 0.0035
GAACTCGATG | 1.018 ± 0.0091
GCCAGCGTCC | 1.62 ± 0.83
TCTACAGTCG | 1.02 ± 0.023
TTCCGGATTA | 1.07 ± 0.065
TTTACTATGG | 0.9984 ± 0.0023
CGTTAGGCGC | 0.985 ± 0.013
CGCTTCGTGA | 1.06 ± 0.059
AAAGGGGATC | 0.998 ± 0.017
ATGTGGTGAC | 0.978 ± 0.039
AGGTGATGTG | 0.998 ± 0.028
GAAGGGTTTG | 0.9968 ± 0.0053
AAGGTGTTGT | 1.04 ± 0.066
GAGGGGAGTG | 1.03 ± 0.064
GCTTTTGTAC | 1.05 ± 0.05
ATGGATAATT | 1.04 ± 0.011
TATTGGAGGG | 0.974 ± 0.019
TTAAACGGTA | 1.03 ± 0.029

Sequence | switch fluorescence ratio
GGGTTCGGGA | 0.991 ± 0.027
CCGTACGTCA | 1.77 ± 0.041
CTGATATTTG | 0.998 ± 0.022
GCGGATTGAA | 0.988 ± 0.044
GATATTGCTA | 0.975 ± 0.03
TCATAGTTCA | 1.03 ± 0.012
GCAGGGGATT | 1.01 ± 0.033
CGGTATAAGG | 0.982 ± 0.046
TGTGTGAGTG | 0.981 ± 0.054
GACTTTGGCA | 0.983 ± 0.034
AGTACGGGGA | 1.04 ± 0.053
ATATACGGCA | 1.19 ± 0.08
TCGGAGCTTG | 1.16 ± 0.064
AGGAAAAAGC | 1.02 ± 0.028
GAGGGATTTG | 1 ± 0.03
TTTTTCGTAT | 1.04 ± 0.044
TTTTTATCAG | 0.977 ± 0.038
CAGTTTTCTT | 1.01 ± 0.062
AGTAGGGTTT | 0.9932 ± 0.0097
TAGCTAGCGT | 1.01 ± 0.019
TTGTTCCTTG | 1.01 ± 0.022
TGTGAGCCTG | 0.98 ± 0.092
TCAGTGGGTT | 0.9968 ± 0.0089
ACCCAGTGAA | 1.24 ± 0.016
ATGGGGGCTT | 1.02 ± 0.047
GAAGGAGGGG | 1.06 ± 0.036

Sequence | switch fluorescence ratio
AAGAAAAAGG | 0.993 ± 0.036
TACCCGGTTT | 0.999 ± 0.026
ACGAGAAGGG | 1.02 ± 0.043
TAATAAACAA | 1 ± 0.024
AAAAAGGATT | 1 ± 0.02
AATTAAACGA | 1.036 ± 0.0068
TTTTAGGGCC | 0.999 ± 0.05
TGAGGAAATG | 1 ± 0.037
TCGGCAGCGG | 1.01 ± 0.034
TTCCGTGGGA | 1.06 ± 0.045
AAAGGTGATG | 0.978 ± 0.04
CATGTCGAGC | 1.02 ± 0.059
CAGGAATACT | 3.61 ± 3
TCGTTTCGGG | 0.985 ± 0.017
GGGGTAGAAT | 1.03 ± 0.061
TGGGAGAGTC | 0.989 ± 0.047
AGGGATTAGG | 0.99 ± 0.034
GCGTTAGGGT | 0.976 ± 0.027
CCAGGTGGCA | 2.83 ± 0.24
GGTATCCGTG | 1.019 ± 0.0085
CGAGGGATCA | 0.9947 ± 0.0011
CACAGGGAGT | 1.03 ± 0.021
TTCTGCGTGC | 1.85 ± 1.5
TGGTTCCCTT | 1.02 ± 0.07
AATCATATTT | 1.02 ± 0.018
TCCATCGGGA | 1.14 ± 0.14

Sequence | switch fluorescence ratio
TTTATGTTTT | 0.965 ± 0.041
GTTAGGGTAT | 0.9975 ± 0.004
AAATGCGGCC | 1 ± 0.067
TGCTTTTTGT | 1.02 ± 0.046
AGAAAAAGTT | 1.017 ± 0.0048
CGGCCTTAGA | 0.985 ± 0.029
CGATGCGGTG | 1.05 ± 0.033
TATACGAATT | 1.02 ± 0.074
AGTAAATCTC | 1.04 ± 0.017
ATGTGCGGGG | 0.99 ± 0.019
CAAAGGTTAG | 1.0209 ± 0.001
ACAGCGGGGT | 1 ± 0.021
TTTTTATAGC | 1.01 ± 0.044
CTAGGTGGCT | 1.02 ± 0.073
ACCCATAGCG | 1.017 ± 0.0062
ATAGTATTAT | 0.968 ± 0.015
GATGGAAGTT | 1 ± 0.018
TTTTTTTCAA | 1.01 ± 0.02
GGGGTGGCAA | 1.008 ± 0.0037
TAATACGTTA | 1.197 ± 0.0026
GCCGTGTTTT | 1.006 ± 0.0018
GGTGTAATTG | 1.003 ± 0.0065
CTTTATTGGG | 0.972 ± 0.02
TGTTTGGCGG | 0.966 ± 0.02
GTGTGACAAC | 0.975 ± 0.013
TCAAGCTTTT | 1.01 ± 0.017

Sequence | switch fluorescence ratio
TTAAGGGTAT | 1 ± 0.011
CGTTTAGGCA | 1.02 ± 0.024
CTGGTGAGTT | 0.9789 ± 0.0012
TTCGGATAAT | 0.98 ± 0.011
TAGACTTTTT | 0.997 ± 0.03
ACGCCTTAGG | 1.05 ± 0.038
GTAATGGGCA | 1.03 ± 0.054
TCTTTGGTTT | 1.17 ± 0.25
TGACCGAGAA | 1.06 ± 0.028
TATGAATGGG | 1.01 ± 0.021
TCAGCCGTTT | 1.05 ± 0.054
TGATTTCAGG | 0.982 ± 0.062
GCAGGGGGGA | 1.04 ± 0.05
TATTTCTGAT | 0.988 ± 0.016
AGGGCAGTTG | 0.97 ± 0.024
TAATAGGTTT | 1.1 ± 0.22
AAAGGGTGTG | 1 ± 0.019
TCAGGGGCGA | 1.041 ± 0.0078
GAAACTATTT | 1.03 ± 0.05
TTTGATACAG | 1.012 ± 0.0071
AGAGTCCGCT | 1.18 ± 0.084
TGGTTCAGGT | 1.02 ± 0.022
TTCGTTCGAA | 1.03 ± 0.067
TCTTGGGGGA | 0.996 ± 0.031
GGGGTGGGTC | 0.974 ± 0.012
TTGTTGGTAG | 1.03 ± 0.031

Sequence | switch fluorescence ratio
GATAGCAGCG | 1.01 ± 0.064
TTCTGGATCC | 1.02 ± 0.043
TTCAGAAGTC | 1.01 ± 0.056
GGGAACAGGG | 1.003 ± 0.0024
TAAAGGTCAT | 0.9959 ± 0.0018
TGGGTGGGGT | 1.01 ± 0.026
GATCTACTTG | 0.995 ± 0.017
TTGTGTCTTT | 0.986 ± 0.017
AGGTTGTTTT | 0.977 ± 0.028
GAAAATAGTG | 1.01 ± 0.029
GAGGCAGGGT | 1.033 ± 0.0064
CAGGACTATT | 0.995 ± 0.021
AATAATCAGT | 1.05 ± 0.033
TTTGGTTGGG | 1.03 ± 0.098
ATTAACTTTA | 1.01 ± 0.035
CCGCTGGATG | 1.202 ± 0.011
GGTATTCATG | 1.01 ± 0.011
TTCGGTTATA | 0.986 ± 0.053
GGGGGAGAGG | 0.99 ± 0.029
TGTGAGGGGT | 0.994 ± 0.033
GATAGCTCTG | 1.02 ± 0.021
AAAGAACACT | 1.06 ± 0.037
GGTTTAATGT | 0.9927 ± 0.0098
